Laboratory results as given in article PMC11754109 (Nature, 2025).
One block for each molecule: values may come before it.

Legend:
[1] = target: Fe protein NifH2 of Mo-nitrogenase (Azotobacter vinelandii); experiment: SEC-MALS
[2] = target: the molecule itself; experiment: SEC-MALS

stoichiometry N (chains per oligomer) [1]: 2
Molecule: Fe protein NifH2 of Mo-nitrogenase (natural protein)

stoichiometry N (NifH2 dimers per FeSII2 dimer) [1]: 1
B1: FeSII protein (Shethna protein II) of Azotobacter vinelandii (natural protein)
chain: MATIYFSSPLMPHNKKVQAVAGKRSTLLGVAQENGVKIPFECQDGNCGSCLVKITHLDGERIKGMLLTDKERNVLKSVGKLPKSEEERAAVRDLPPTYRLACQTIVTDEDLLVEFTGEPGGA
stoichiometry N [2]: 2 chains per oligomer
